Key:
ASM = target: T1, ASM (Mus musculus, UniProt Q04519); experiment: ASM activity in plasma of ALS animal model (FUS R521C mice); assay type: in vivo; conditions: 7-week-old ALS mice, 50 mg/kg i.p. twice weekly, vs PBS; FIG. 56B
T1 construct: from tissue; host or cells: mouse serum/plasma and brain tissue (APP/PS1, RSD-stressed C57BL/6, FUS R521C mice)
T1 sequence (Q04519 45-627): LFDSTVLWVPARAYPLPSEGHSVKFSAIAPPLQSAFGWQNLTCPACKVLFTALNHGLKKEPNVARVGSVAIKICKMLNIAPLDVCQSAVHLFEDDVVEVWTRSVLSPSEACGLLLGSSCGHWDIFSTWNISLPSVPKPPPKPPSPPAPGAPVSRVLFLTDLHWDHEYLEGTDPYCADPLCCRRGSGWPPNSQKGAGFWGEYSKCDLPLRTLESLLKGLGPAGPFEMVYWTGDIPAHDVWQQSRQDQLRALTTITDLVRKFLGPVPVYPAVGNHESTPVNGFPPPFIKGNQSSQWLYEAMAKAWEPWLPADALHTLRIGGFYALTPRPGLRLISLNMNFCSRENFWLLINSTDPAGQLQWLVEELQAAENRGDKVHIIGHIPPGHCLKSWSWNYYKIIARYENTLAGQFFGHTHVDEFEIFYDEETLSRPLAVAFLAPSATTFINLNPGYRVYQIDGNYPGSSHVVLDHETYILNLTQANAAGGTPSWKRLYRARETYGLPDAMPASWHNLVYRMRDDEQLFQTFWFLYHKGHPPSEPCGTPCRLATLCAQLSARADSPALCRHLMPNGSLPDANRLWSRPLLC

ASM protein = ASM protein concentration in plasma of APP/PS1 mice (ELISA); assay type: in vivo, mouse; conditions: 50 mg/kg i.p. twice weekly, between groups, FIG. 51C
β-amyloid = β-amyloid deposition in brain tissue of APP/PS1 mice (thioflavin S, immunofluorescence, ELISA); assay type: in vivo, mouse; conditions: medulla and hippocampus, 50 mg/kg i.p. twice weekly, vs PBS
Procedure: First, the cerebral cortex and hippocampus tissue of each mouse prepared in Example 1-1 were isolated, and then a tissue fragment was obtained and this was dyed with thioflavin S according to a conventional known method. The results are illustrated in FIG. 3 (cerebral cortex) and FIG. 4 (hippocampus).
Also, immunofluorescence was performed according to a conventional known method using anti-20G10 (mouse, 1:1000) antibody against Aβ42, anti-G30 (rabbit, […]) antibody against Aβ40, anti-Iba-1 (rabbit, 1:500, Wako) antibody, anti-GFAP (rabbit, 1:500, DAKO) antibody and anti-active caspase3 (rabbit, 1:50, Chemicon) antibody. Tissue fragments were observed using a confocal laser scanning microscope equipped with Fluoview SV1000 imaging software (Olympus FV1000, Japan) or an Olympus BX51 microscope, and the percentage of the area of the dyed area with respect to the area of the entire tissue was quantified using Metamorph software (Molecular Devices).
Also, β-amyloid deposition was confirmed using commercially available ELISA kits (Biosource). More specifically, hemispheres of the brain of each mouse were homogenized in a buffer containing 0.02 M of guanidine. Thereafter, ELISA was performed for Aβ40 and Aβ42 according to the manufacturer's instructions.
After fixing the cerebral and hippocampal tissues of the mice, 0.5% thioflavin S (Sigma-Aldrich), anti-20G10 antibodies (mouse, 1:1000) against Aβ42, anti-G30 antibodies (rabbit, […]) against Aβ40, anti-GFAP antibodies (rabbit, 1:500, DAKO), or anti-Iba-1 antibodies (rabbit, 1:500, Wako) were co-cultured. The tissues were analyzed using a laser scanning confocal microscope equipped with Fluoview SV1000 imaging software (Olympus FV1000, Japan) or an Olympus BX51 microscope. Percentage of stained area to total tissue area was quantified and analyzed using Metamorph software (Molecular Devices).
After fixing the mouse brain and hippocampus, 0.5% thioflavin S (Sigma-Aldrich), anti-GFAP (rabbit, 1:500, DAKO), and anti-Iba-1 (rabbit, 1:500, WAKO) were co-cultured together. The regions were analyzed using a laser scanning confocal microscope equipped with Fluoview SV1000 imaging software (Olympus FV1000, Japan) or an Olympus BX51 microscope. Percentage of stained area to total tissue area was quantified and analyzed using Metamorph software (Molecular Devices).
Proteins were extracted from mouse brain and hippocampus, and the amounts of Abeta40 (KHB3481, Invitrogen) and Abeta42 (KHB3441, Invitrogen) were measured using ELISA.

B1: ASM-ab 23A12C3: self-made monoclonal ASM antibody, Koma biotech; heavy chain SEQ ID NO. 29, light chain SEQ ID NO. 30 (antibody)
heavy: MGWSWIFLFLLSGTAGVHSEVQLQQSGPVLVKPGASVKMSCKASGYTFTDYYMNWVKQSHGKSLEWIGVINPYNDGTSYNQKFKGKATLTVDKSSSTAYMELNSLTSEDSAVYYCAREKLYYYGRDYAMDYWGQGTSVTVSSAKTTPPSVYPLAPGSAAQTNSMVTLGCLVKGYFPEPVTVTWNSGSLSSGVHTFPAVLQSDLYTLSSSVTVPSSTWPSQTVTCNVAHPASSTKVDKKIVPRDCGCKPCICTVPEVSSVFIFPPKPKDVLTITLTPKVTCVVVDISKDDPEVQFSWFVDDVEVHTAQTKPREEQINSTFRSVSELPIMHQDWLNGKEFKCRVNSAAFPAPIEKTISKTKGRPKAPQVYTIPPPKEQMAKDKVSLTCMITNFFPEDITVEWQWNGQPAENYKNTQPIMDTDGSYFVYSKLNVQKSNWEAGNTFTCSVLHEGLHNHHTEKSLSHSPGK
light: MSSAQFLGLLLLCFQGTRCDIQMTQTTSSLSASLGDRVTISCRSSQDISNYLNWCQQKPDGTVKLLIYYTSRLHSGVPSRFSGSGSGTDYSLTISNLEQEDIATYFCQQDNTLPYTFGGGTKLEIKRADAAPTVSIFPPSSEQLTSGGASVVCFLNNFYPKDINVKWKIDGSERQNGVLNSWTDQDSKDSTYSMSSTLTLTKDEYERHNSYTCEATHKTSTSPIVKSFNRNEC
modifications: 23A12C3_Heavy chain; 23A12C3_Light chain
notes: self-made monoclonal ASM antibody, Koma biotech; 30
level of ASM activity in the plasma (ASM): remarkably low
plasma ASM protein concentration (ASM protein): no difference
deposition of fibrillar Aβ (thioflavin S) (β-amyloid; FIG. 52A, 52B): significantly lower
deposition of Aβ40 (ELISA) (β-amyloid; FIG. 53A, 53B): significantly lower
deposition of Aβ42 (ELISA) (β-amyloid; FIG. 53A, 53B): significantly lower
